Measurements published in paper PMC9458429.

Tests used:
Experiment in all cases: filter binding
[1] = test system: 70S ribosome (Escherichia coli MRE600); conditions: Filter binding: 50 nM 32P-RNA in TAKM5 buffer (composition not given), 15 min at 37 C, nitrocellulose filtration, fluorescence titrations: pyrene, ex 341 nm …
[2] = test system: 40S ribosomal subunit ((HeLa cells)); conditions: Filter binding: 50 nM 32P-RNA in TAKM5 buffer (composition not given), 15 min at 37 C, nitrocellulose filtration; fluorescence titrations: pyrene, ex 341 nm …
[3] = test system: 30S ribosomal subunit (Escherichia coli MRE600); conditions: Filter binding: 50 nM 32P-RNA in TAKM5 buffer (composition not given), 15 min at 37 C, nitrocellulose filtration, fluorescence titrations: pyrene, ex 341 nm …

Sequence | Kd [1] [nM] | Kd [3] [nM] | further results
AAAGCAAAAAUGUGAUCUUGCUUGUAAAUACAAUUUUGAGAGGUUAAUAAAUUACAAGUAGUGCUAUUUUUGUAUUUAGGUUAGCUAUUUAGCUUUACGUUCCAGGAUGCCUAGUGGCAGCCCCACAAUAUCCAGGAAGCCCUCUCUGCGGUUUUUCAGAUUAGGUAGUCGAAAAACCUAAGAAAUUUACCUGCUACAUUUCAAGAUAAA [CrPV IGR IRES WT] | 69 | 110 | Kd [2]: 14 nM
AAAGCAAAAAUGUGAUCUUGCUUGUAAAUACAAUUUUGAGAGGUUAAUAAAUUACAAGUAGUGCUAUUUUUGUAUUUAGGUUAGCUAUUUAGCUUUACGUUCCAGGAUGCCUAGUGGCAGCCCCACAAUAUCCAGGAAGCCCUCUCUGCGGUUUUUCAGAUUAGGUAGUCGAAAAACCUAAGAAAUUUAGGUGCUACAUUUCAAGAUAAA [CrPV IGR IRES PK1_K/O] | 92 | 55 | Kd [2]: 4 nM
AAAGCAAAAAUGUGAUCUUGCUUGUAAAUACAAUUUUGAGAGGUUAAUAAAUUACAAGUAGUGCUAUUUUUGUAUUUAGGUUAGCUAUUUAGCUUUACGUUCCAGGAUGCCUAGUGGCAGCCCCACAAUAUCCAGGAAGCGGAGAGUGCGGUUUUUCAGAUUAGGUAGUCGAAAAACCUAAGAAAUUUACCUGCUACAUUUCAAGAUAAA [CrPV IGR IRES PK2_K/O] | 100 | 74 | –
AAAGCAAAAAUGUGAUCUUGCUUGUAAAUACAAUUUUGAGAGGUUAAUAAAUUACAAGUAGUGCUAUUUUUGUAUUUAGGUUAGCUAUUUAGCUUUACGUUCCAGGAUGCCUAGUGGCAGCCCGUGAAUAUCCAGGAAGCCCUCUCUGCGGUUUUUCAGAUUAGGUAGUCGAAAAACCUAAGAAAUUUACCUGCUACAUUUCAAGAUAAA [CrPV IGR IRES PK3_K/O] | 90 | 48 | –
AAAGCAAAAAUGUGAUCUUGCUUGUAAAUACAAUUUUGAGAGGUUAAUAAAUUACAAGUAGUGCUAUUUUUGUAUUUAGGUUAGCUAUUUAGCUUUACGUUCCAGGAUGCCUAGUGGCAGCCGGUGAAUAUCCAGGAAGCCCUCUCUGCGGUUUUUCAGAUUAGGUAGUCGAAAAACCUAAGAAAUUUAGGUGCUACAUUUCAAGAUAAA [CrPV IGR IRES PK1+3_K/O] | 78 | 52 | –
AAAGCAAAAAUGUGAUCUUGCUUGUAAAUACAAUUUUGAGAGGUUAAUAAAUUACAAGUAGUGCUAUUUUUGUAUUUAGGUUAGCUAUUUAGCUUUACGUUCCAGGAUGCCUAGUGGCAGCCGGUGAAUAUCCAGGAAGCGGAGAGUGCGGUUUUUCAGAUUAGGUAGUCGAAAAACCUAAGAAAUUUAGGUGCUACAUUUCAAGAUAAA [CrPV IGR IRES PK1+2+3_K/O] | 79 | 48 | –
GAGCGGUUUCUGGAAUACUAUAUGUAAGUAUAGUGUUCUGGAGGCAUCAUUCUAUGGUUACCCAUCAUUAGAGGAAAUUUCCAAUAAACUCUGGUGUAAGGCUUAGAGUGAUGGUCGAGGUGCCCUAUUUAGGGUGAGGAGCCUCGGUGGCAGCCCCACCAAAUCCUCUAUUGGAUAGGAACAGCUGUACUGGGCAGUUACAGCAGUCGUAUGGUAACACAUGCGGCGUUCCGAAAUACCAUGCCUGGCGAUUCACAACAAGAA [IAPV IGR IRES WT] | 50 | 93 | –
GAGCGGUUUCUGGAAUACUAUAUGUAAGUAUAGUGUUCUGGAGGCAUCAUUCUAUGGUUACCCAUCAUUAGAGGAAAUUUCCAAUAAACUCUGGUGUAAGGCUUAGAGUGAUGGUCGAGGUGCCCUAUUUAGGGUGAGGAGCCUCGGUGGCAGCCCCACCAAAUCCUCUAUUGGAUAGGAACAGCUGUACUGGGCAGUUACAGCAGUCGUAUGGUAACACAUGCGGCGUUCCGAAAUACCAUGGGUGGCGAUUCACAACAAGAA [IAPV IGR IRES PK1_K/O] | 67 | 87 | –
GAGCGGUUUCUGGAAUACUAUAUGUAAGUAUAGUGUUCUGGAGGCAUCAUUCUAUGGUUACCCAUCAUUAGAGGAAAUUUCCAAUAAACUCUGGUGUAAGGCUUAGAGUGAUGGUCGAGGUGCCCUAUUUAGGGUGAGGAGCCUCGGUGGCAGCCCCACCAAAUCCUCUUAACCAUAGGAACAGCUGUACUGGGCAGUUACAGCAGUCGUAUGGUAACACAUGCGGCGUUCCGAAAUACCAUGCCUGGCGAUUCACAACAAGAA [IAPV IGR IRES PK2_K/O] | 59 | 81 | –
GAGCGGUUUCUGGAAUACUAUAUGUAAGUAUAGUGUUCUGGAGGCAUCAUUCUAUGGUUACCCAUCAUUAGAGGAAAUUUCCAAUAAACUCUGGUGUAAGGCUUAGAGUGAUGGUCGAGGUGCCCUAUUUAGGGUGAGGAGCCUCGGUGGCAGCCCCUGGAAAUCCUCUAUUGGAUAGGAACAGCUGUACUGGGCAGUUACAGCAGUCGUAUGGUAACACAUGCGGCGUUCCGAAAUACCAUGCCUGGCGAUUCACAACAAGAA [IAPV IGR IRES PK3_K/O] | 59 | 103 | –
GAGCGGUUUCUGGAAUACUAUAUGUAAGUAUAGUGUUCUGGAGGCAUCAUUCUAUGGUUACCCAUCAUUAGAGGAAAUUUCCAAUAAACUCUGGUGUAAGGCUUAGAGUGAUGGUCGAGGUGCCCUAUUUAGGGUGAGGAGCCUCGGUGGCAGCCCCUGGAAAUCCUCUAUUGGAUAGGAACAGCUGUACUGGGCAGUUACAGCAGUCGUAUGGUAACACAUGCGGCGUUCCGAAAUACCAUGGGUGGCGAUUCACAACAAGAA [IAPV IGR IRES PK1+3_K/O] | 65 | 80 | –
GAGCGGUUUCUGGAAUACUAUAUGUAAGUAUAGUGUUCUGGAGGCAUCAUUCUAUGGUUACCCAUCAUUAGAGGAAAUUUCCAAUAAACUCUGGUGUAAGGCUUAGAGUGAUGGUCGAGGUGCCCUAUUUAGGGUGAGGAGCCUCGGUGGCAGCCCCUGGAAAUCCUCUUAACCAUAGGAACAGCUGUACUGGGCAGUUACAGCAGUCGUAUGGUAACACAUGCGGCGUUCCGAAAUACCAUGGGUGGCGAUUCACAACAAGAA [IAPV IGR IRES PK1+2+3_K/O] | 72 | 73 | –
GCGCGGAUGCUCAGUCGGUAGAGCAGGGGAUUGAAAAUCCCCGUGUCCUUGGUUCGAUUCCGAGUCCGCGCACCA [tRNAPhe] | – | – | Kd ([3]; only 10% bound): 35 nM
GGAUACGCACAAUAAGGCUAUUGUACGUAUGCAAAUUAAUAAUAAAGGAGAGUAGCAAUGUCAUUCGAAUUACCUGCACUACCAUAUGCUAAAGAUGCUCUGGCACCGCACAUUUCUGCGG [sodB 5' UTR RNA] | – | – | Kd ([1]; 56% bound): 47 nM; Kd ([3]; 41% bound): 13 nM
GGUACGAGUAGAAUACUGCCGCUUAACGUCGCGUAAAUUGUUUAACACUUUGCGUAACGUACACUGGGAUCGCUGAAUUAGAGAUCGGCGUCCUUUCAUUCUAUAUACUUUGGAGUUUUAAAAUGUCUCAAGUACUGAAGCAACAGCUAAAAUCGUUUCUGAGUUUGGUCGUGACGCAAACGACACC [rpsO 5' UTR RNA] | – | – | Kd ([1]; 44% bound): 94 nM; Kd ([3]; 39% bound): 10 nM
